Measured values published in paper PMC9496542, “The Ni(II)-Binding Activity of the Intrinsically Disordered Region of Human NDRG1, a Protein Involved in Cancer Development” (Biomolecules, 2022).
Several values for one entry are separate records, joined by “and”; a condition that tells them apart may be missing. Equal entries are not always repeated.

Assays:
[1] = biological target: the molecule itself; assay: SDS-PAGE under nondenaturing conditions with Western blot; A549 cells untreated or treated with 1 mM NiSO4 for two days; total lysates and nuclear extracts; Western blot with anti-NDRG1
[2] = biological target: the molecule itself; assay: SEC-MALS; SEC-MALS-QELS; hNDRG1 300 uL at 140 uM on Superdex 200 10/300 GL; 20 mM HEPES pH 7.5, 150 mM NaCl, 1 mM TCEP; room temperature, 0.5 mL/min; without or with Ni(II); SEC also run with 10 mM DTT; monomer, dimer and tetramer in equilibrium
[3] = biological target: the molecule itself; assay: SDS-PAGE under nondenaturing conditions with Western blot; HeLa cells untreated or treated with 1 mM NiSO4 for 24 h; lysed under nondenaturing conditions; lysates in native sample buffer; blot with an antibody against the N-terminal region of NDRG1

B1: endogenous hNDRG1 in A549 cells (natural protein)
chain: not shown
notes: human NDRG1, endogenous protein of the lung carcinoma-derived A549 cells, detected by Western blot with anti-NDRG1; source: endogenous, A549 lysate
- stoichiometry N [1]: 4

B2: full-length human NDRG1 (N-terminal Strep-tagged, recombinant) (natural protein)
chain: not shown
notes: No cleavage of the tag is described for the full-length protein; also called hNDRG1; N-myc downstream-regulated gene 1 protein; source: E. coli BL21-CodonPlus (DE3) RiL, purified (StrepTrap HP, Superdex 200)
- stoichiometry N [2]: 4 and 2

B3: endogenous hNDRG1 in HeLa cells (natural protein)
chain: not shown
notes: human NDRG1, endogenous protein of HeLa cells, detected with an antibody against the N-terminal region of NDRG1; source: endogenous, HeLa lysate
- stoichiometry N [3]: 2 and 4
